Here are results for 1 substance from US5994104.

Experiment [1] deals with IL-12 receptor.
The target in experiment [2] is IL-12 receptor. This is another data set of the same source.

On to “recombinant IL-12 (from UniProt P29459) (ligand)”, for which the INF-γ production by PHA blasts (ELISA, 36 hours) with IL-12 receptor [1] stood at 186 ng/mL. In addition, the proliferation of PHA blasts (MTT assay, 48 hours); lowest dose with an effect in the experiment with IL-12 receptor [2] amounted to 10 pg/mL.
